Assay results taken from IntAct's records for PubMed 29039417.

B1: Protein PTHB1 (Homo sapiens), Q3SYG4 (parent)
chain: MSLFKARDWWSTILGDKEEFDQGCLCLANVDNSGNGQDKIIVGSFMGYLRIFSPHPAKTGDGAQAEDLLLEVDLRDPVLQVEVGKFVSGTEMLHLAVLHSRKLCVYSVSGTLGNVEHGNQCQMKLMYEHNLQRTACNMTYGSFGGVKGRDLICIQSMDGMLMVFEQESYAFGRFLPGFLLPGPLAYSSRTDSFLTVSSCQQVESYKYQVLAFATDADKRQETEQQKLGSGKRLVVDWTLNIGEQALDICIVSFNQSASSVFVLGERNFFCLKDNGQIRFMKKLDWSPSCFLPYCSVSEGTINTLIGNHNNMLHIYQDVTLKWATQLPHIPVAVRVGCLHDLKGVIVTLSDDGHLQCSYLGTDPSLFQAPNVQSRELNYDELDVEMKELQKIIKDVNKSQGVWPMTEREDDLNVSVVVSPNFDSVSQATDVEVGTDLVPSVTVKVTLQNRVILQKAKLSVYVQPPLELTCDQFTFEFMTPDLTRTVSFSVYLKRSYTPSELEGNAVVSYSRPTDRNPDGIPRVIQCKFRLPLKLICLPGQPSKTASHKITIDTNKSPVSLLSLFPGFASQSDDDQVNVMGFHFLGGARITVLASKTSQRYRIQSEQFEDLWLITNELILRLQEYFEKQGVKDFACSFSGSIPLQEYFELIDHHFELRINGEKLEELLSERAVQFRAIQRRLLARFKDKTPAPLQHLDTLLDGTYKQVIALADAVEENQGNLFQSFTRLKSATHLVILLIALWQKLSADQVAILEAAFLPLQEDTQELGWEETVDAAISHLLKTCLSKSSKEQALNLNSQLNIPKDTSQLKKHITLLCDRLSKGGRLCLSTDAAAPQTMVMPGGCTTIPESDLEERSVEQDSTELFTNHRHLTAETPRPEVSPLQGVSE
partner: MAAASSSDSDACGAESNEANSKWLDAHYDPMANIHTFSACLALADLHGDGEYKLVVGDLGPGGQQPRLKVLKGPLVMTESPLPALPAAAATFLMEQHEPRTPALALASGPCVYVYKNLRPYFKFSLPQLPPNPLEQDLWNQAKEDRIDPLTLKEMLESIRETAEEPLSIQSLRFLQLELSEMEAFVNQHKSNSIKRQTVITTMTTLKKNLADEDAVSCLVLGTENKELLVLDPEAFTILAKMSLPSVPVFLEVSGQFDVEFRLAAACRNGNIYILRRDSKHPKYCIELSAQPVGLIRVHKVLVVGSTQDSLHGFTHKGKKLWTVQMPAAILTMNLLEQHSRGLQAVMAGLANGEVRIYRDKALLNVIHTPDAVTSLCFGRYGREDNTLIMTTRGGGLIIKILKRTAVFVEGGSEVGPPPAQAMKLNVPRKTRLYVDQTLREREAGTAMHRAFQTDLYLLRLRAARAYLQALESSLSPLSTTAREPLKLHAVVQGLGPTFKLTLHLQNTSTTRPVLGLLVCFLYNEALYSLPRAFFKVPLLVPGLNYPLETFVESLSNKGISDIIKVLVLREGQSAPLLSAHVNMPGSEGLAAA

Variants of: B1
Conditions: with bbs1_human BBS1, Q8NFJ9

| Variant | effect of a mutation on the interaction |
| --- | --- |
| D573E | with no effect |
| D608A | with no effect |
| D608K | with no effect |
| D608E | with no effect |
| L609A | with no effect |
| L609E | with no effect |
| L609K | with no effect |
| F582E | with no effect |
| F582A | with no effect |
| F582K | with no effect |
| F563E | with no effect |
| F563A | with no effect |
| F563K | with no effect |
| G584E | with no effect |
| G584K | with no effect |
| G584A | with no effect |
| N576K | with no effect |
| N576E | with no effect |
| N576A | with no effect |
| Y599K | with no effect |
| Y599E | with no effect |
| Y599A | with no effect |
| S603A | with no effect |

| Variant | effect of a mutation on the interaction |
| --- | --- |
| S603E | with no effect |
| S603K | with no effect |
| Q602E | with no effect |
| Q602A | with no effect |
| Q602K | with no effect |
| T589K | with no effect |
| T589E | with no effect |
| T589A | with no effect |
| D572A | with no effect |
| D572K | with no effect |
| D572E | with no effect |
| D571K | with no effect |
| D571E | with no effect |
| D571A | with no effect |
| F566E | with no effect |
| F566K | with no effect |
| F566A | with no effect |
| R598K | with no effect |
| R598A | with no effect |
| R598S | disrupting interaction strength |
| R598E | with no effect |
| E607A | with no effect |
| E607K | with no effect |

| Variant | effect of a mutation on the interaction |
| --- | --- |
| E607V | disrupting interaction strength |
| F606A | with no effect |
| F606K | with no effect |
| F606E | with no effect |
| I588A | with no effect |
| I588K | with no effect |
| I588E | with no effect |
| L611K | with no effect |
| L611E | with no effect |
| L611A | with no effect |
| I601K | with no effect |
| I601A | with no effect |
| I601E | with no effect |
| R619A | with no effect |
| R619C | disrupting interaction strength |
| L618F | disrupting interaction strength |
| L618K | with no effect |
| L618A | with no effect |
| L618E | with no effect |
| I617E | with no effect |
| I617A | with no effect |
| I617K | with no effect |
| S568G | disrupting interaction strength |

| Variant | effect of a mutation on the interaction |
| --- | --- |
| S568K | with no effect |
| S568E | with no effect |
| S568A | with no effect |
| V575K | with no effect |
| V575A | with no effect |
| V575E | with no effect |
| R600G | disrupting interaction strength |
| R600E | with no effect |
| R600A | with no effect |
| R600K | with no effect |
| W610K | with no effect |
| W610E | with no effect |
| W610A | with no effect |
| V577K | with no effect |
| V577E | with no effect |
| V577A | with no effect |
| P564E | with no effect |
| P564K | with no effect |
| P564A | with no effect |
| A567K | with no effect |
| A567E | with no effect |
